Literature values as cited in PMC3283658.

Target: IL-15Rβγ (Homo sapiens) (UniProt P14784)
UniProt P14784, sequence (P14784 27-240, chain 1 of 2): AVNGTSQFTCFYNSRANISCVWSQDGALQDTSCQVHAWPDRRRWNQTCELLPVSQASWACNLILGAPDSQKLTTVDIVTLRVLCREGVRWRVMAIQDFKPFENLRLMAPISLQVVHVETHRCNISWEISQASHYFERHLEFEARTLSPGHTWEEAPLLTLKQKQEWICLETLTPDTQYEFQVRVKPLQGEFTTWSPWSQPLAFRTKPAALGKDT
UniProt P14784, sequence (P31785 23-262, chain 2 of 2, further chain): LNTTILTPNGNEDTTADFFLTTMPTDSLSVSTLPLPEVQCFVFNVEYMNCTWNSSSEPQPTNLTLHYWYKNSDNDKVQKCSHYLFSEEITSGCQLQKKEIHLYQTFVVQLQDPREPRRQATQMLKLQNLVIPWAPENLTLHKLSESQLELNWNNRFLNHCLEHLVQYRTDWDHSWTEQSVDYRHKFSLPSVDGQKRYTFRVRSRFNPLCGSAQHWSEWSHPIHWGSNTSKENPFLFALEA

Kd: 4 nM
Substance: IL-15 (from UniProt P40933)
